Measured values: the supplement of paper PMC11246515
± gives the standard deviation of the averaged measurements.

Assay: total protein half-life in vivo (active degradation + dilution); higher = more stable protein
[1] = E. coli NCM3722 delta-clpP delta-lon delta-hslV, growth: N-lim chemostat, doubling time 6 h
[2] = E. coli NCM3722 delta-clpP, growth: N-lim chemostat, doubling time 6 h
[3] = E. coli NCM3722 delta-hslV, growth: N-lim chemostat, doubling time 6 h
[4] = E. coli NCM3722 delta-lon, growth: N-lim chemostat, doubling time 6 h
[5] = E. coli NCM3722 delta-smpB, growth: N-lim chemostat, doubling time 6 h
[6] = wild type E. coli NCM3722, growth: C-lim chemostat, doubling time 3 h
[7] = wild type E. coli NCM3722, growth: C-lim chemostat, doubling time 12 h
[8] = wild type E. coli NCM3722, growth: N-lim chemostat, doubling time 6 h
[9] = wild type E. coli NCM3722, growth: N-lim chemostat, doubling time 12 h
[10] = wild type E. coli NCM3722, growth: P-lim chemostat, doubling time 6 h
[11] = wild type E. coli NCM3722, growth: P-lim chemostat, doubling time 12 h
[12] = wild type E. coli NCM3722, growth: C-lim chemostat, doubling time 6 h

Sequence	total protein half-life in vivo [1]	total protein half-life in vivo [2]	total protein half-life in vivo [3]	total protein half-life in vivo [4]	total protein half-life in vivo [5]	total protein half-life in vivo [6]	total protein half-life in vivo [7]	total protein half-life in vivo [8]	total protein half-life in vivo [9]	total protein half-life in vivo [10]	total protein half-life in vivo [11]	total protein half-life in vivo [12]
MTKPYVRLDKNDAAVLLVDHQAGLLSLVRDIEPDKFKNNVLALGDLAKYFNLPTILTTSFETGPNGPLVPELKAQFPDTPYIARPGNINAWDNEDFVKAVKATGKKQLIIAGVVTEVCVAFPALSAIEEGFDVFVVTDASGTFNEITRHSAWDRLSQAGAQLMTWFGVACELHRDWRNDIEGLATLFSNHIPDYRNLMTSYDTLTKQK	6.75 ± 1.6 h	5.73 ± 0.18 h	5.4 ± 0.7 h	5.666 ± 0.053 h	4.69 ± 0.19 h	3.0124 ± 0.0024 h	10.3 ± 1.9 h	5.17 ± 0.61 h	9.22 ± 0.33 h	5.84 ± 0.94 h	12.9 ± 1.1 h	
MTKQPPIAKADLQKTQGNRAPAAVKNSDVISFINQPSMKEQLAAALPRHMTAERMIRIATTEIRKVPALGNCDTMSFVSAIVQCSQLGLEPGSALGHAYLLPFGNKNEKSGKKNVQLIIGYRGMIDLARRSGQIASLSARVVREGDEFSFEFGLDEKLIHRPGENEDAPVTHVYAVARLKDGGTQFEVMTRKQIELVRSLSKAGNNGPWVTHWEEMAKKTAIRRLFKYLPVSIEIQRAVSMDEKEPLTIDPADSSVLTGEYSVIDNSEE	5.151 ± 0.025 h		1.34 h			2.62 ± 0.65 h	7.28 ± 0.72 h	1.57 h	3.39 h		4.09 ± 0.29 h	3.79 ± 0.043 h
MTKTLLDGPGRVLESVYPRFLVDLAQGDDARLPQAHQQQFRERLMQELLSRVQLQTWTNGGMLNAPLSLRLTLVEKLASMLDPGHLALTQIAQHLALLQKMDHRQHSAFPELPQQIAALYEWFSARCRWKEKALTQRGLLVQAGDQSEQIFTRWRAGAYNAWSLPGRCFIVLEELRWGAFGDACRLGSPQAVALLLGDLLEKATQHLAESINAAPTTRHYYHQWFASSTVPTGGEHADFLSWLGKWTTADKQPVCWSVTQRWQTVALGMPRLCSAQRLAGAMLEEIFSVNLA					3.06 h	2.56 ± 0.43 h	7.8 h				12.1 ± 0.79 h	5.83 ± 1.1 h
MTKYALVGDVGGTNARLALCDIASGEISQAKTYSGLDYPSLEAVIRVYLEEHKVEVKDGCIAIACPITGDWVAMTNHTWAFSIAEMKKNLGFSHLEIINDFTAVSMAIPMLKKEHLIQFGGAEPVEGKPIAVYGAGTGLGVAHLVHVDKRWVSLPGEGGHVDFAPNSEEEAIILEILRAEIGHVSAERVLSGPGLVNLYRAIVKADNRLPENLKPKDITERALADSCTDCRRALSLFCVIMGRFGGNLALNLGTFGGVFIAGGIVPRFLEFFKASGFRAAFEDKGRFKEYVHDIPVYLIVHDNPGLLGSGAHLRQTLGHIL [P0A6V8]	5.167 ± 0.05 h	5.45 ± 0.21 h	4.8 ± 0.84 h	5.7 ± 0.3 h	5.16 ± 0.58 h	2.78 ± 0.35 h		5 ± 1.4 h	9.21 ± 0.77 h		15.2 ± 1.1 h	6.3 ± 0.76 h
MTLETAFMLPVQDAQHSFRRLLKAMSEPGVIVALHQLKRGWQPLNIATTSVLLTLADNDTPVWLSTPLNNDIVNQSLRFHTNAPLVSQPEQATFAVTDEAISSEQLNALSTGTAVAPEAGATLILQVASLSGGRMLRLTGAGIAEERMIAPQLPECILHELTERPHPFPLGIDLILTCGERLLAIPRTTHVEVC										1.74 ± 0.51 h	3.12 ± 1.3 h	
MTLKELLVGFGTQVRSIWMIGLHAFAKRETRMYPEEPVYLPPRYRGRIVLTRDPDGEERCVACNLCAVACPVGCISLQKAETKDGRWYPEFFRINFSRCIFCGLCEEACPTTAIQLTPDFEMGEYKRQDLVYEKEDLLISGPGKYPEYNFYRMAGMAIDGKDKGEAENEAKPIDVKSLLP [P0AFD6]	6.29 ± 0.46 h	7.36 ± 0.22 h	6.38 ± 0.14 h	7.21 ± 0.13 h	6.351 ± 0.056 h	3.32 ± 0.17 h	12 ± 1.3 h	5.99 ± 1.2 h	15.2 ± 0.83 h	6 ± 0.08 h	13.6 ± 2.2 h	6.25 ± 0.18 h
MTLLNISGLSHHYAHGGFNGKHQHQAVLNNVSLTLKSGETVALLGRSGCGKSTLARLLVGLESPAQGNISWRGEPLAKLNRAQRKAFRRDIQMVFQDSISAVNPRKTVREILREPMRHLLSLKKSEQLARASEMLKAVDLDDSVLDKRPPQLSGGQLQRVCLARALAVEPKLLILDEAVSNLDLVLQAGVIRLLKKLQQQFGTACLFITHDLRLVERFCQRVMVMDNGQIVETQVVGEKLTFSSDAGRVLQNAVLPAFPVRRRTTEKV	6.58 h											
MTLNKTDRIVITLGKQIVHGKYVPGSPLPAEAELCEEFATSRNIIREVFRSLMAKRLIEMKRYRGAFVAPRNQWNYLDTDVLQWVLENDYDPRLISAMSEVRNLVEPAIARWAAERATSSDLAQIESALNEMIANNQDREAFNEADIRYHEAVLQSVHNPVLQQLSIAISSLQRAVFERTWMGDEANMPQTLQEHKALFDAIRHQDGDAAEQAALTMIASSTRRLKEIT	5.42 ± 0.19 h	5.12 ± 0.7 h	4.89 ± 0.076 h	5.07 ± 0.42 h	4.36 ± 0.15 h	2.87 ± 0.24 h	9.94 ± 0.54 h	4.79 ± 0.079 h	7.99 ± 0.64 h	4.902 ± 0.047 h	10.15 ± 0.052 h	5.54 ± 0.089 h
MTLRKILALTCLLLPMMASAHQFETGQRVPPIGITDRGELVLDKDQFSYKTWNSAQLVGKVRVLQHIAGRTSAKEKNATLIEAIKSAKLPHDRYQTTTIVNTDDAIPGSGMFVRSSLESNKKLYPWSQFIVDSNGVALGAWQLDEESSAVVVLDKDGRVQWAKDGALTPEEVQQVMDLLQKLLK	3.41 ± 0.29 h	4.29 ± 0.11 h	5.19 h	5.62 ± 0.11 h	5.29 ± 0.49 h	2.78 ± 0.033 h	7.33 ± 1.6 h	5.43 ± 0.29 h	7.61 ± 2.1 h	4.74 ± 1.5 h	8.359 ± 0.082 h	4.952 ± 0.046 h
